In this series the target is CD63 on SH-SY5Y exosomes (UniProt P08962 2-238). Briefly: flow cytometry on exosome-coated microspheres; 200 nM probe; 5 mM Mg2+; about 10^3-fold (printed 103-fold) fluorescence over control and MU-Cy5; 1x PBS, 5 mM MgCl2, 0.2% BSA (w/v), 37 C, 1 h; exosome-coated microspheres blocked with glycine/BSA; pH not stated. Particulars: protein: native; label: 3' Cy5.

The values below come from article PMC11117858, “APPROACH: Sensitive Detection of Exosomal Biomarkers by Aptamer-Mediated Proximity Ligation Assay and Time-Resolved Förster Resonance Energy Transfer”.

CD63 on SH-SY5Y exosomes, sequence (P08962 2-238): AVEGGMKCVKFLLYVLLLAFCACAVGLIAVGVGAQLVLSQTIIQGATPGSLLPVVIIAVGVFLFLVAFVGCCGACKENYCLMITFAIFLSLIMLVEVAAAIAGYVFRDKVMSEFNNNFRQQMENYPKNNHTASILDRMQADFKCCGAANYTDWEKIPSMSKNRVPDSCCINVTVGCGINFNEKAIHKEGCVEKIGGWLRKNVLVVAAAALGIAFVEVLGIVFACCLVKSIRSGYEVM

B1: Apt-CD63-Cy5 (ssDNA)
DNA: ATATACACCCCACCTCGCTCCCGTGACACTAATGCTATTTTTTTTTTTTTTTGACGCTAATAGTTAAGACGCT
B1: the binding result is “binds”.
